Laboratory results: patent US20190352423A1 (Genmab, published 2019)
Changes are numbered by the printed parent chain. Names may count otherwise.

B1: bsCD63N74Hxb12 (bispecific antibody, part only; not given: b12 control arm, constant regions, V domains shown, not shown: another chain or arm of the molecule; a dimerising Fc or GST)
VH: EVQLQQSGPELVKPGASVKMSCKASGYTFTSYVMHWVRQTPGQGLEWIGYITPYHDGTKYNEKFKGKATLTSDKSSSTAYMELSSLTSEDSAVYYCVGGDNYYYAMDYWGQGTSVTVSA
VL: NIMVTQSPSSLAVSAGEKVTMSCKSSQSVLYSSNQKNYLAWYQQKPGQSPKLLIYWASTRVSGVPDRFTGSGSGTDFTLTISRVQAEDLAVYYCHQYFSSFTFGSGTKLEIK
B2: bsCD63xb12-Duo3 (bispecific antibody, part only; not given: b12 control arm VH and VL, IgG1, V domains shown, part only)
VH: EVQLQQSGPELVKPGASVKMSCKASGYTFTSYVMHWVRQTPGQGLEWIGYITPYNDGTKYNEKFKGKATLTSDKSSSTAYMELSSLTSEDSAVYYCVGGDNYYYAMDYWGQGTSVTVSAA
VL: NIMVTQSPSSLAVSAGEKVTMSCKSSQSVLYSSNQKNYLAWYQQKPGQSPKLLIYWASTRVSGVPDRFTGSGSGTDFTLTISRVQAEDLAVYYCHQYFSSFTFGSGTKLEIKRT
B3: bsCD63N74Hxb12-Duo3 (bispecific antibody, part only; not given: b12 control arm, V domains shown, part only)
VH: B2 VH with N55H
VL: B2 VL
B4: bsHER2xCD63-Duo3 with CD63 variant LY51H (bispecific antibody, part only; not given: HER2 arm (IgG1-153) VH and VL, V domains shown, part only)
VH: B2 VH
VL: B2 VL with Y31H
B5: bsHER2xCD63-Duo3 with CD63 variant LN54H (bispecific antibody, part only; not given: HER2 arm (IgG1-153) VH and VL, V domains shown, part only)
VH: B2 VH
VL: B2 VL with N34H
B6: bsCD63xb12-Duo3 with CD63 variant LN54H (bispecific antibody, part only; not given: b12 control arm VH and VL, V domains shown, part only)
VH: B2 VH
VL: B2 VL with N34H
B7: bsCD63xb12-Duo3 with CD63 variant Y121H (bispecific antibody, part only; not given: b12 control arm VH and VL, V domains shown, part only)
VH: B2 VH with Y102H
VL: B2 VL
B8: bsCD63xb12-Duo3 with CD63 variant LV49H (bispecific antibody, part only; not given: b12 control arm, V domains shown, part only)
VH: B2 VH
VL: B2 VL with V29H
B9: bsCD63xb12-Duo3 with CD63 variant T71H (bispecific antibody, part only; not given: b12 control arm, V domains shown, part only)
VH: B2 VH with T52H
VL: B2 VL
B10: bsCD63xb12-Duo3 with CD63 variant Y79H (bispecific antibody, part only; not given: b12 control arm, V domains shown, part only)
VH: B2 VH with Y60H
VL: B2 VL
B11: bsHER2xCD63-Duo3 with CD63 variant Y127 (bispecific antibody, part only; not given: HER2 arm (IgG1-153) VH and VL, V domains shown, part only)
VH: B2 VH with Y108H
VL: B2 VL
B12: bsHER2xCD63-Duo3 with CD63 variant P72H (bispecific antibody, part only; not given: HER2 arm (IgG1-153) VH and VL, V domains shown, part only)
VH: B2 VH with P53H
VL: B2 VL
B13: bsCD63xb12-Duo3 with CD63 variant G76H (bispecific antibody, part only; not given: b12 control arm VH and VL, V domains shown, part only)
VH: B2 VH with G57H
VL: B2 VL
B14: bsHER2xCD63-Duo3 with CD63 variant Y46 (bispecific antibody, part only; not given: HER2 arm (IgG1-153) VH and VL, V domains shown, part only)
VH: B2 VH with Y27H
VL: B2 VL
B15: bsHER2xCD63-Duo3 with CD63 variant Y121H (bispecific antibody, part only; not given: HER2 arm, V domains shown, part only)
VH: B2 VH with Y102H
VL: B2 VL
B16: bsHER2xCD63-Duo3 with CD63 variant T71H (bispecific antibody, part only; not given: HER2 arm (IgG1-153) VH and VL, V domains shown, part only)
VH: B2 VH with T52H
VL: B2 VL
B17: bsCD63xb12-Duo3 with CD63 variant Y46 (bispecific antibody, part only; not given: b12 control arm VH and VL, V domains shown, part only)
VH: B2 VH with Y27H
VL: B2 VL
B18: bsCD63xb12-Duo3 with CD63 variant P72H (bispecific antibody, part only; not given: b12 control arm, V domains shown, part only)
VH: B2 VH with P53H
VL: B2 VL
B19: bsCD63xb12-Duo3 with CD63 variant LY51H (bispecific antibody, part only; not given: b12 control arm VH and VL, V domains shown, part only)
VH: B2 VH
VL: B2 VL with Y31H
B20: bsHER2xCD63-Duo3 with CD63 variant LS52 (bispecific antibody, part only; not given: HER2 arm (IgG1-153) VH and VL, V domains shown, part only)
VH: B2 VH
VL: B2 VL with S32H
B21: bsHER2xCD63-Duo3 with CD63 variant G76H (bispecific antibody, part only; not given: HER2 arm (IgG1-153) VH and VL, V domains shown, part only)
VH: B2 VH with G57H
VL: B2 VL
B22: bsCD63xb12-Duo3 with CD63 variant LS52 (bispecific antibody, part only; not given: b12 control arm VH and VL, V domains shown, part only)
VH: B2 VH
VL: B2 VL with S32H
B23: bsHER2xCD63-Duo3 with CD63 variant LQ47 (bispecific antibody, part only; not given: HER2 arm, V domains shown, part only)
VH: B2 VH
VL: B2 VL with Q27H
B24: bsCD63xb12-Duo3 with CD63 variant Y127 (bispecific antibody, part only; not given: b12 control arm VH and VL, V domains shown, part only)
VH: B2 VH with Y108H
VL: B2 VL
B25: bsHER2xCD63N74H-Duo3 (bispecific antibody, part only; not given: HER2 arm, V domains shown, part only)
VH: B2 VH with N55H
VL: B2 VL
B26: bsHER2xCD63-Duo3 with CD63 variant LV49H (bispecific antibody, part only; not given: HER2 arm (IgG1-153) VH and VL, V domains shown, part only)
VH: B2 VH
VL: B2 VL with V29H
B27: bsCD63xb12-Duo3 with CD63 variant LQ47 (bispecific antibody, part only; not given: b12 control arm, V domains shown, part only)
VH: B2 VH
VL: B2 VL with Q27H
B28: bsHER2xCD63-Duo3 with CD63 variant Y79H (bispecific antibody, part only; not given: HER2 arm (IgG1-153) VH and VL, V domains shown, part only)
VH: B2 VH with Y60H
VL: B2 VL
B29: bsHER2xCD63-Duo3 (bispecific antibody, part only; not given: HER2 arm, IgG1, V domains shown, part only)
VH: B2 VH
VL: B2 VL

molecular target: CD63 on cells (human) (UniProt P08962); experiment: cell-based or functional assay
Sequence (P08962 2-238): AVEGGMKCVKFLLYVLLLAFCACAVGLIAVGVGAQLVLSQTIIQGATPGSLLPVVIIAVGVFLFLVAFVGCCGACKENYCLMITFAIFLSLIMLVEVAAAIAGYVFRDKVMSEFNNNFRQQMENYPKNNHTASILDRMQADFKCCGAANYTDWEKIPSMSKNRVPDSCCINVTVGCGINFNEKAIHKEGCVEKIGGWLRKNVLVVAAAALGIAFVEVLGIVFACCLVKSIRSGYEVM

Row | Binder | lysosomal co-localization with LAMP1 in SK-OV-3 cells (confocal microscopy, 16 hours) [fold lower] | IC50 of cytotoxicity, Colo205 cells (CellTiter-GLO, 4 days) [µg/mL] | IC50 of cytotoxicity, HCC1954 cells (CellTiter-GLO, 4 days) [µg/mL] | IC50 of cytotoxicity, SK-OV-3 cells (CellTiter-GLO, 4 days) [µg/mL]
1 | B1 | 10 | – | – | –
2 | B2 | – | 2.61 | 0.424 | 0.815
3 | B3 | – | 3.93 | 1.35 | 1.99
4 | B4 | – | 10 | 0.069 | 0.207
5 | B5 | – | 1.69 | 0.013 | 0.021
6 | B6 | 10 | 10 | 1.55 | 3.35
7 | B7 | 10 | 10 | 10 | 5.46
8 | B8 | – | 10 | 1.65 | 1.4
9 | B9 | – | 10 | 4.89 | 3.8
10 | B10 | – | 3.41 | 0.42 | 0.93
11 | B11 | – | 0.472 | 0.017 | 0.061
12 | B12 | – | 1.4 | 0.014 | 0.028
13 | B13 | – | 1.42 | 10 | 3.06
14 | B14 | – | 0.754 | 0.016 | 0.045
15 | B15 | – | 10 | 0.073 | 0.259
16 | B16 | – | 2.23 | 0.03 | 0.115
17 | B17 | – | 5.64 | 0.9 | 1.37
18 | B18 | 10 | 10 | 0.92 | 1.72
19 | B19 | – | 10 | 5.27 | 4.52
20 | B20 | – | 0.567 | 0.018 | 0.047
21 | B21 | – | 10 | 0.104 | 0.351
22 | B22 | – | 2.25 | 0.662 | 1.13
23 | B23 | – | 0.587 | 0.017 | 0.048
24 | B24 | – | 1.89 | 0.664 | 1.08
25 | B25 | – | 1.35 | 0.017 | 0.037
26 | B26 | – | 10 | 0.065 | 0.314
27 | B27 | – | 2.43 | 0.753 | 1.11
28 | B28 | – | 0.432 | 0.008 | 0.021
29 | B29 | – | 0.416 | 0.009 | 0.017
